Assay results: US12072338B2, “Pharmaceutical peptides for the treatment of inflammatory diseases” (PROTAGONISTS LTD., priority 2007, dated 2024)

Assays:
MCP-4 = target: T1, MCP-4 (Homo sapiens, UniProt Q99616); experiment: Micro-array analysis of chemokine binding peptides: MCP-4
T1 construct: purchased 300-24
Procedure: (§1) (1) Printing: Chemokine (CK) solution (in water) was serially diluted with Print Reagent (GenTel BioSurfaces USA) to final concentrations of 50 μg and 25 μg/ml. BSA/BSA-Biotin control solutions (in water) were diluted with Print Reagent to 100 μg/ml. Amplified stock of M13 phage control (M13KEgIII Cloning Vector, New England Biolabs, Cat.No.E8101S) was stored in Tris Buffered Saline (TBS; pH7.5, 4° C.) and diluted with Print Reagent to the working titre (10^8 pfu/μl). An automated spotting robot (16 pin print tool, 0.4 mm head; BioRobotics, UK) was used to print the CK/BSA control/M13 control, 5 repeats per sample (CK 25 μg/ml and 50 μg/ml; BSA 100 μg/ml; M13 20 μl), on PATH Protein Microarray Slides (GenTel, Prod.No. 2-1005/-1025) at […], and 50-70% relative humidity. Printed micro-array slides were stored at Room Temperature (RT) or 4° C. for at least 24 h before use.
(§2) (2) Blocking: Block Buffer (500 μl/partition; PATHblock, GenTel, Prod.No. 2-1014) was applied to the slide for 1 hour at room temp (RT). After removal of Block Buffer, the slide was air dried for 25 minutes;
(§3) (3) Phage Presented Peptide Binding: Amplified recombinant phage stock was stored in TBS and diluted with Wash Buffer to working titer (10^7 pfu/μl). Recombinant phage suspension (300 μl) was applied per partition and incubated at RT for 1 hour with gentle agitation.
(§4) (4) First Washing: The slides were washed twice with Wash Buffer 300 μl/partition).
(§5) (5) Primary Antibody (Ab) Labeling: The slides were incubated with the Primary Ab (1 mg/ml diluted ×2500 (Wash Reagent), 300 μl; Mouse Anti-M13 monoclonal Ab; Amersham Biosciences, UK; Product Code 27-9420-01) for 45 minutes at RT.
(§6) (6) Second Washing: The slides were washed twice with Wash Buffer (300 μl/partition).
(§7) (7) Secondary Ab Labeling: The slides were incubated with Secondary Ab (1.5 mg/ml diluted ×5000 (Wash Reagent), 300 μl; Cy3-conjugated AffiniPure Goat Anti-Mouse IgG; Jackson ImmunoReserch Labs, USA; Product Code 115-165-062).
(§8) (8) Third Washing: The slides were washed twice with Wash Buffer (300 μl/partition).
(§9) (9) Rinse: the slides were rinsed twice with Rinse Buffer (PATHrinse, GenTel, Prod.No. 2-1018) then dried well.
(§10) (10) Scanning: The peptide-bound, labeled slide was scanned (Laser Intensity 80%, Gain 80%, Resolution 10 μm) with a ScanArray Life Scanner (Packard BioChip Technologies, USA).
(§11) (11) Analysis: Quantitative analysis of micro-array was performed by the SpotReader program of Niles Scientific (USA) and presented as Relative Fluorescence (RF) as a function of CK concentration. Micro-array readout (Cy3 fluorescence) was quantified to determine the relative binding affinities of a CBP for the CKs and by inference, the specificity of the CBP for binding to a CK.

MCP-2 = target: T2, MCP-2 (Homo sapiens, UniProt P80075); experiment: Micro-array analysis of chemokine binding peptides: MCP-2
T2 construct: purchased 300-15
T2 sequence (P80075 24-99): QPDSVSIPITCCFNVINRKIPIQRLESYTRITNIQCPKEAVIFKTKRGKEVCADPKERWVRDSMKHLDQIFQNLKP
Procedure: as §1, §2, §3, §4, §5, §6, §7, §8, §9, §10, §11

I-TAC = target: T3, I-TAC (Homo sapiens, UniProt O14625); experiment: Micro-array analysis of chemokine binding peptides: I-TAC; conditions: for binding to I-TAC with relatively high affinity (Relative Fluorescence Units): limit = start of the upper 75% of that peptide's response range
T3 construct: purchased 300-46
T3 sequence (O14625 22-94): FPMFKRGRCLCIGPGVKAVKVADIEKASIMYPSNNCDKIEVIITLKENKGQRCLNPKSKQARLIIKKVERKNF
Procedure: as §1, §2, §3, §4, §5, §6, §7, §8, §9, §10, §11

Lymphotactin = target: T4, Lymphotactin (Homo sapiens, UniProt P47992); experiment: Micro-array analysis of chemokine binding peptides: Lymphotactin
T4 construct: purchased 300-20
T4 sequence (P47992 22-114): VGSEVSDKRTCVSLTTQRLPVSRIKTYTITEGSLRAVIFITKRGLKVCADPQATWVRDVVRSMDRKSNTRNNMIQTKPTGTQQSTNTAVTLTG
Procedure: as §1, §2, §3, §4, §5, §6, §7, §8, §9, §10, §11

RANTES = target: T5, RANTES (Homo sapiens, UniProt P13501); experiment: Micro-array analysis of chemokine binding peptides: RANTES
T5 construct: purchased 300-06
T5 sequence (P13501 24-91): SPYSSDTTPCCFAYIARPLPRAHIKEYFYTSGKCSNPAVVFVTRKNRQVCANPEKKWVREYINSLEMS
Procedure: as §1, §2, §3, §4, §5, §6, §7, §8, §9, §10, §11

Mig = target: T6, Mig (Homo sapiens, UniProt Q07325); experiment: Micro-array analysis of chemokine binding peptides: Mig; conditions: for binding to Mig with relatively high affinity (Relative Fluorescence Units): limit = start of the upper 75% of that peptide's response range
T6 construct: purchased 300-26
T6 sequence (Q07325 23-125): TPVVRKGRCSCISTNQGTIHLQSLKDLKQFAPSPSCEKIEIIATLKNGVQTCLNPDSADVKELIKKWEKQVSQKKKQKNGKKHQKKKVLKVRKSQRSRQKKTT
Procedure: as §1, §2, §3, §4, §5, §6, §7, §8, §9, §10, §11

Eotaxin 3 = target: T7, Eotaxin 3 (Homo sapiens, UniProt Q9Y258); experiment: Micro-array analysis of chemokine binding peptides: Eotaxin 3
T7 construct: purchased 300-48
T7 sequence (Q9Y258 24-94): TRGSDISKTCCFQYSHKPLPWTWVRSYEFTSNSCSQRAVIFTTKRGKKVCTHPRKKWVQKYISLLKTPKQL
Procedure: as §1, §2, §3, §4, §5, §6, §7, §8, §9, §10, §11

Eotaxin = target: T8, Eotaxin (Homo sapiens, UniProt P51671); experiment: Micro-array analysis of chemokine binding peptides: Eotaxin
T8 construct: purchased 300-21
Procedure: as §1, §2, §3, §4, §5, §6, §7, §8, §9, §10, §11

MCP-1 = target: T9, MCP-1 (Homo sapiens, UniProt P13500); experiment: Micro-array analysis of chemokine binding peptides: MCP-1
T9 construct: purchased 300-04
Procedure: as §1, §2, §3, §4, §5, §6, §7, §8, §9, §10, §11

Eotaxin 2 = target: T10, Eotaxin 2 (Homo sapiens, UniProt O00175); experiment: Micro-array analysis of chemokine binding peptides: Eotaxin 2
T10 construct: purchased 300-33
T10 sequence (O00175 27-119): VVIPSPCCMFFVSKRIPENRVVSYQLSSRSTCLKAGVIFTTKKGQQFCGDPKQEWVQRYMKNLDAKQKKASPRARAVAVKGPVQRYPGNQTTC
Procedure: as §1, §2, §3, §4, §5, §6, §7, §8, §9, §10, §11

BCA-1 = target: T11, BCA-1 (Homo sapiens, UniProt O43927); experiment: Micro-array analysis of chemokine binding peptides: BCA-1
T11 construct: purchased 300-47
T11 sequence (O43927 23-109): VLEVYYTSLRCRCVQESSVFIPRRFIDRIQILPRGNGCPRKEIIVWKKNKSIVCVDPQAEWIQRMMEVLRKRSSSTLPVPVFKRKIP
Procedure: as §1, §2, §3, §4, §5, §6, §7, §8, §9, §10, §11

TECK = target: T12, TECK (Homo sapiens, UniProt O15444); experiment: Micro-array analysis of chemokine binding peptides: TECK
T12 construct: purchased 300-45
T12 sequence (O15444 24-150): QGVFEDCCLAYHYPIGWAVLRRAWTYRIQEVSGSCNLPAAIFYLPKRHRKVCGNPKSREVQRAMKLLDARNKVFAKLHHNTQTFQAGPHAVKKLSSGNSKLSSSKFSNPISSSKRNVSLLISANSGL
Procedure: as §1, §2, §3, §4, §5, §6, §7, §8, §9, §10, §11

GRO-β = target: T13, GRO-β (Homo sapiens, UniProt P19875); experiment: Micro-array analysis of chemokine binding peptides: GRO-β
T13 construct: purchased 300-39
T13 sequence (P19875 35-107): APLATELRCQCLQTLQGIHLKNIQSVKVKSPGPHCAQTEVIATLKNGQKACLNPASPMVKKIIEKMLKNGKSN
Procedure: as §1, §2, §3, §4, §5, §6, §7, §8, §9, §10, §11

IL-8 = experiment: Micro-array analysis of chemokine binding peptides: IL-8
Procedure: as §1, §2, §3, §4, §5, §6, §7, §8, §9, §10, §11

Exodus-2 = target: T14, Exodus-2 (Homo sapiens, UniProt O00585); experiment: Micro-array analysis of chemokine binding peptides: Exodus-2
T14 construct: purchased 300-35
T14 sequence (O00585 24-134): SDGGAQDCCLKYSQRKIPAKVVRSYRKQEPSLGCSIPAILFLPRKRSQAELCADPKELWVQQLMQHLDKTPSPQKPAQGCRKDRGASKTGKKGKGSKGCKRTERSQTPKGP
Procedure: as §1, §2, §3, §4, §5, §6, §7, §8, §9, §10, §11

SDF1-α = target: T15, SDF1-α (Homo sapiens, UniProt P48061); experiment: Micro-array analysis of chemokine binding peptides: SDF1-α
T15 construct: purchased 300-28a
Procedure: as §1, §2, §3, §4, §5, §6, §7, §8, §9, §10, §11

Fractalkine = target: T16, Fractalkine (Homo sapiens, UniProt P78423); experiment: Micro-array analysis of chemokine binding peptides: Fractalkine
T16 construct: purchased 300-31
T16 sequence (P78423 25-100 limits assumed): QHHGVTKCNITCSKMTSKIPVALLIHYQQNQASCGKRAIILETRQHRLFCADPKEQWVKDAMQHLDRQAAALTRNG
Procedure: as §1, §2, §3, §4, §5, §6, §7, §8, §9, §10, §11

I-309 = target: T17, I-309 (Homo sapiens, UniProt P22362); experiment: Micro-array analysis of chemokine binding peptides: I-309; conditions: limit = start of the upper 75% of that peptide's response range
T17 construct: purchased 300-37
T17 sequence (P22362 24-96): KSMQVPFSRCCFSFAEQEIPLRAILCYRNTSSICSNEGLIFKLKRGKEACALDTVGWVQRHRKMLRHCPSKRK
Procedure: as §1, §2, §3, §4, §5, §6, §7, §8, §9, §10, §11

SDF1-β = target: T18, SDF1-β (Homo sapiens, UniProt P48061); experiment: Micro-array analysis of chemokine binding peptides: SDF1-β
T18 construct: purchased 300-28b
Procedure: as §1, §2, §3, §4, §5, §6, §7, §8, §9, §10, §11

[1] = limit = start of the upper 75% of that peptide's response range

T1 sequence (Q99616 17-98): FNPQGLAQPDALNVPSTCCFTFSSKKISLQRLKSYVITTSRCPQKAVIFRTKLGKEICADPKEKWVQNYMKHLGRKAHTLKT
T9 sequence (P13500 24-99): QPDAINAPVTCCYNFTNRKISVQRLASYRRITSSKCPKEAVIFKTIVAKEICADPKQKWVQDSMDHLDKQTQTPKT
Chain of IL-8 (P10145 28-99 limits assumed): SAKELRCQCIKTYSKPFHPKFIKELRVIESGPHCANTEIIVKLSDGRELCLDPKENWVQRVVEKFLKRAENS
T15 sequence (P48061 22-89 limits assumed): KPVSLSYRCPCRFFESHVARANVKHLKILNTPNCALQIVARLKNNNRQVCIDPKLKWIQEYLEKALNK
T18 sequence (P48061 22-93): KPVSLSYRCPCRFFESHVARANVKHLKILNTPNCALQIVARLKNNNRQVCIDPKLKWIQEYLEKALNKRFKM

binding to MCP-4, stated in words (MCP-4)	binding to I-TAC with relatively high affinity (Relative Fluorescence Units) (I-TAC)	binding to Lymphotactin, stated in words (Lymphotactin)	binding to Mig with relatively high affinity (Relative Fluorescence Units) (Mig)	binding to Eotaxin 3, stated in words (Eotaxin 3)	binding to Eotaxin, stated in words (Eotaxin)	binding to MCP-1, stated in words (MCP-1)	binding to BCA-1, stated in words (BCA-1)	binding to TECK, stated in words (TECK)	binding to GRO-β, stated in words (GRO-β)	binding to IL-8, stated in words (IL-8)	Substance	further results
bound	> 9,000 RFU	bound	> 9,000 RFU	bound	bound	bound	bound	bound	bound	bound	DRYLNIVHAT [Ph-p18]	binding to MCP-2, stated in words (MCP-2): bound; binding to RANTES, stated in words (RANTES): bound; binding to Eotaxin 2, stated in words (Eotaxin 2): bound
–	> 15,000 RFU	bound	> 15,000 RFU	–	–	–	bound	bound	–	–	DYDYG (listed as Homo sapiens) [Ph-p31]	binding to Exodus-2, stated in words (Exodus-2): bound; binding to MCP-4 with relatively high affinity (Relative Fluorescence Units) (MCP-4; [1]): > 15,000 RFU; binding to MCP-2 with relatively high affinity (Relative Fluorescence Units) (MCP-2; [1]): > 15,000 RFU; binding to SDF1-α, stated in words (SDF1-α): bound; binding to RANTES with relatively high affinity (Relative Fluorescence Units) (RANTES; [1]): > 15,000 RFU; binding to Eotaxin 3 with relatively high affinity (Relative Fluorescence Units) (Eotaxin 3; [1]): > 15,000 RFU; binding to Eotaxin with relatively high affinity (Relative Fluorescence Units) (Eotaxin; [1]): > 15,000 RFU; binding to MCP-1 with relatively high affinity (Relative Fluorescence Units) (MCP-1; [1]): > 15,000 RFU; binding to Fractalkine, stated in words (Fractalkine): bound; binding to Eotaxin 2 with relatively high affinity (Relative Fluorescence Units) (Eotaxin 2; [1]): > 15,000 RFU; binding to I-309 with relatively high affinity (Relative Fluorescence Units) (I-309): > 15,000 RFU; binding to SDF1-β, stated in words (SDF1-β): bound; binding to IL-8 with relatively high affinity (Relative Fluorescence Units) (IL-8; [1]): > 15,000 RFU
bound	–	bound	–	bound	bound	bound	–	bound	bound	bound	HYTCSSHFP [Ph-p17]	binding to I-TAC, stated in words (I-TAC): bound; binding to Mig, stated in words (Mig): bound
